Data on 57 sequences can be found in the supplement of paper PMC10598134.

± gives the standard deviation.

This data set can be described thus: collision cross section of modified peptide (TIMS, N2, iRT-aligned); higher = larger / more extended gas-phase ion. How it is done:
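1/K0 was aligned run-wise to spiked iRT peptides and converted to CCS in N2 (Mason-Schamp). Values are the mean of 1-3 technical replicates for the most abundant feature at each charge state.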

Where [1] appears, read: charge state: 2, modification: Acetyl (K).
[2] abbreviates: charge state: 3, modification: Acetyl (K).
[3] abbreviates: charge state: 2, modification: Biotin.
Setting [4] is: charge state: 3, modification: Biotin.
The mark [5] stands for this setting: charge state: 2, modification: Butyryl.
The mark [6] stands for this setting: charge state: 3, modification: Butyryl.
Setting [7] is: charge state: 2, modification: Crotonyl.
[8] abbreviates: charge state: 3, modification: Crotonyl.
Setting [9] is: charge state: 2, modification: Dimethyl (K).
The mark [10] stands for this setting: charge state: 3, modification: Dimethyl (K).
Setting [11] is: charge state: 2, modification: Formyl.
Setting [12] is: charge state: 2, modification: Glutarylation.
The mark [13] stands for this setting: charge state: 3, modification: Glutarylation.
Setting [14] is: charge state: 2, modification: GlyGly (K).
The mark [15] stands for this setting: charge state: 3, modification: GlyGly (K).
The mark [16] stands for this setting: charge state: 2, modification: Malonyl.
Setting [17] is: charge state: 3, modification: Malonyl.
Setting [18] is: charge state: 2, modification: Methyl (K).
Where [19] appears, read: charge state: 3, modification: Methyl (K).
[20] abbreviates: charge state: 2, modification: Succinyl.
Setting [21] is: charge state: 3, modification: Succinyl.
The mark [22] stands for this setting: charge state: 3, modification: Trimethyl (K).
The mark [23] stands for this setting: charge state: 2, modification: hydroxyisobutyryl.
Where [24] appears, read: charge state: 3, modification: hydroxyisobutyryl.
The mark [25] stands for this setting: charge state: 2, modification: Propionyl.
Where [26] appears, read: charge state: 2, modification: HexNAc (ST).
The mark [27] stands for this setting: charge state: 3, modification: HexNAc (ST).

For the sequence DDSNLYINVK [_DDSNLY(Phospho (Y))INVK_], the collision cross section (charge state: 2, modification: Phospho (Y)) turned out to be 368.08 ± 0.064 Å².

With “DESFLGKLGGTLAR [_DESFLGK(Acetyl (K))LGGTLAR_]”, the collision cross section was determined as 410.82 ± 1.1 Å² under setting [1] and 491.27 Å² under setting [2].

For “DESFLGKLGGTLAR [_DESFLGK(Biotin)LGGTLAR_]”, the collision cross section was found to be 424.81 Å² under setting [3] and 506.47 Å² under setting [4].

On to “DESFLGKLGGTLAR [_DESFLGK(Butyryl)LGGTLAR_]”, for which the collision cross section is 417.73 ± 0.53 Å² under setting [5] and 494.35 ± 3.3 Å² under setting [6].

For “DESFLGKLGGTLAR [_DESFLGK(Crotonyl)LGGTLAR_]”, the collision cross section reads like this: under setting [7], 415.33 ± 0.28 Å²; under setting [8], 492.01 Å².

Turning to “DESFLGKLGGTLAR [_DESFLGK(Dimethyl (K))LGGTLAR_]”, the collision cross section runs as follows: under setting [9], 418.8 ± 0.75 Å²; under setting [10], 466.85 ± 1.2 Å².

The sequence “DESFLGKLGGTLAR [_DESFLGK(Formyl)LGGTLAR_]” showed a collision cross section under setting [11] of 408.46 ± 1.1 Å².

For the sequence “DESFLGKLGGTLAR [_DESFLGK(Gluratylation)LGGTLAR_]”, the collision cross section turned out to be 418.47 ± 2.1 Å² under setting [12] and 488.45 ± 2.4 Å² under setting [13].

Regarding “DESFLGKLGGTLAR [_DESFLGK(GlyGly (K))LGGTLAR_]”, the collision cross section turned out to be 437.68 ± 0.96 Å² under setting [14] and 486.51 ± 1.1 Å² under setting [15].

As to “DESFLGKLGGTLAR [_DESFLGK(Malonyl)LGGTLAR_]”, the collision cross section is, setting by setting: under setting [16], 413.79 ± 1.2 Å²; under setting [17], 487.95 Å².

For “DESFLGKLGGTLAR [_DESFLGK(Methyl (K))LGGTLAR_]”, the collision cross section by setting is: under setting [18], 408.12 ± 0.81 Å²; under setting [19], 471.83 ± 2.8 Å².

“DESFLGKLGGTLAR [_DESFLGK(Succinyl)LGGTLAR_]” displayed a collision cross section under setting [20] of 416.2 ± 0.36 Å² and a collision cross section under setting [21] of 490.1 ± 2.1 Å².

“DESFLGKLGGTLAR [_DESFLGK(Trimethyl (K))LGGTLAR_]” came in with a collision cross section under setting [22] of 477.03 ± 0.84 Å².

Consider “DESFLGKLGGTLAR [_DESFLGK(hydroxyisobutyryl)LGGTLAR_]”, for which the collision cross section stood at 419.07 ± 0.83 Å² under setting [23] and 498.29 ± 2.3 Å² under setting [24].

On to “DFAFYNPRLQGK [_DFAFYNPR(Citrullination (R))LQGK_]”, for which the collision cross section turned out to be 400.16 ± 0.22 Å² (charge state: 2, modification: Citrullination (R)) and 473.76 Å² (charge state: 3, modification: Citrullination (R)).

Take “DFAFYNPRLQGK [_DFAFYNPR(Methyl (R))LQGK_]”: the collision cross section amounted to 413.14 ± 0.67 Å² (charge state: 2, modification: Methyl (R)) and 469.16 ± 2.2 Å² (charge state: 3, modification: Methyl (R)).

As to DFDTALKHYDK [_DFDTALK(Acetyl (K))HYDK_], the collision cross section is, setting by setting: under setting [1], 401.2 ± 2 Å²; under setting [2], 463.37 ± 2.2 Å².

Consider DFDTALKHYDK [_DFDTALK(Biotin)HYDK_], for which the collision cross section by setting is: under setting [3], 424.89 ± 0.23 Å²; under setting [4], 488.66 Å².

Turning to DFDTALKHYDK [_DFDTALK(Butyryl)HYDK_], the collision cross section by setting is: under setting [5], 408.66 ± 0.23 Å²; under setting [6], 465.65 ± 2.9 Å².

In the case of DFDTALKHYDK [_DFDTALK(Crotonyl)HYDK_], the collision cross section was 412.02 ± 2.4 Å² under setting [7] and 466.35 ± 1.9 Å² under setting [8].

“DFDTALKHYDK [_DFDTALK(Dimethyl (K))HYDK_]” returned a collision cross section under setting [10] of 452.29 ± 1.2 Å².

As to DFDTALKHYDK [_DFDTALK(Formyl)HYDK_], the collision cross section is, setting by setting: under setting [11], 397.93 ± 1.3 Å²; (charge state: 3, modification: Formyl) 457.98 ± 2.1 Å².

For the sequence “DFDTALKHYDK [_DFDTALK(Gluratylation)HYDK_]”, the collision cross section under setting [12] turned out to be 406.02 ± 0.63 Å² and the collision cross section under setting [13] was found to be 469.01 ± 1.7 Å².

As for DFDTALKHYDK [_DFDTALK(GlyGly (K))HYDK_], the collision cross section by setting is: under setting [14], 400.17 ± 0.77 Å²; under setting [15], 467.02 ± 1.1 Å².

Regarding DFDTALKHYDK [_DFDTALK(Malonyl)HYDK_], the collision cross section under setting [16] is given as 405.79 ± 0.59 Å².

For the sequence DFDTALKHYDK [_DFDTALK(Methyl (K))HYDK_], the collision cross section is 393.99 Å² under setting [18] and 458.02 ± 4 Å² under setting [19].

DFDTALKHYDK [_DFDTALK(Propionyl)HYDK_] registered a collision cross section under setting [25] of 403.21 Å².

For DFDTALKHYDK [_DFDTALK(Succinyl)HYDK_], the collision cross section runs as follows: under setting [20], 404.59 ± 1.1 Å²; under setting [21], 465.49 ± 2.9 Å².

“DFDTALKHYDK [_DFDTALK(hydroxyisobutyryl)HYDK_]”: the collision cross section runs as follows: under setting [23], 409.01 ± 0.39 Å²; under setting [24], 468.72 ± 1.9 Å².

With “DFSLTSSSQTPGATK [_DFS(HexNAc (ST))LTSSSQTPGATK_]”, the collision cross section reads like this: under setting [26], 426.98 ± 0.62 Å²; under setting [27], 516.25 Å².

Under setting [1], DHLSDKESK [_DHLSDK(Acetyl (K))ESK_] registered a collision cross section of 350.98 ± 1.6 Å².

DHLSDKESK [_DHLSDK(Biotin)ESK_]: the collision cross section runs as follows: under setting [3], 368.95 Å²; under setting [4], 429.55 Å².

With DHLSDKESK [_DHLSDK(Butyryl)ESK_], the collision cross section under setting [5] was 355.58 ± 0.7 Å².

Sequence DHLSDKESK [_DHLSDK(Crotonyl)ESK_] displayed a collision cross section under setting [7] of 361.16 ± 11 Å².

Turning to DHLSDKESK [_DHLSDK(Dimethyl (K))ESK_], the collision cross section by setting is: under setting [9], 344.63 ± 1.5 Å²; under setting [10], 408.73 ± 0.56 Å².

For the sequence DHLSDKESK [_DHLSDK(Formyl)ESK_], the collision cross section under setting [11] is recorded as 345.83 ± 0.37 Å².

For the sequence DHLSDKESK [_DHLSDK(Gluratylation)ESK_], the collision cross section by setting is: under setting [12], 353.36 ± 0.63 Å²; under setting [13], 411.89 Å².

As for DHLSDKESK [_DHLSDK(GlyGly (K))ESK_], the collision cross section reads like this: under setting [14], 353.15 ± 0.53 Å²; under setting [15], 411.26 Å².

As for DHLSDKESK [_DHLSDK(Malonyl)ESK_], the collision cross section was determined as 349.37 ± 0.029 Å² under setting [16] and 411.48 Å² under setting [17].

DHLSDKESK [_DHLSDK(Methyl (K))ESK_]: the collision cross section came to 345.4 ± 1.5 Å² under setting [18] and 413.72 ± 4.7 Å² under setting [19].

As to DHLSDKESK [_DHLSDK(Propionyl)ESK_], under setting [25], the collision cross section was 355.5 ± 0.95 Å².

Turning to DHLSDKESK [_DHLSDK(Succinyl)ESK_], the collision cross section under setting [20] was determined as 350.32 ± 1.6 Å² and the collision cross section under setting [21] is reported as 416.05 ± 0.88 Å².

Sequence DHLSDKESK [_DHLSDK(Trimethyl (K))ESK_] yielded a collision cross section (charge state: 2, modification: Trimethyl (K)) of 350.64 ± 1.1 Å² and a collision cross section under setting [22] of 401.61 ± 0.025 Å².

Take “DHLSDKESK [_DHLSDK(hydroxyisobutyryl)ESK_]”: the collision cross section is, setting by setting: under setting [23], 357.61 ± 1.9 Å²; under setting [24], 415.53 ± 4.4 Å².

As for “DHSKPISNPSDNK [_DHS(HexNAc (ST))KPISNPSDNK_]”, the collision cross section is, setting by setting: under setting [26], 406.95 ± 0.13 Å²; under setting [27], 479.5 ± 0.17 Å².

In turn, “DKALPLEAEVAPVK [_DK(Acetyl (K))ALPLEAEVAPVK_]” gave a collision cross section under setting [1] of 407.82 ± 5.1 Å².

In the case of “DKALPLEAEVAPVK [_DK(Biotin)ALPLEAEVAPVK_]”, the collision cross section under setting [3] turned out to be 435.06 Å².

As for “DKALPLEAEVAPVK [_DK(Butyryl)ALPLEAEVAPVK_]”, under setting [5], the collision cross section is recorded as 418.05 ± 4.9 Å².

Under setting [7], “DKALPLEAEVAPVK [_DK(Crotonyl)ALPLEAEVAPVK_]” returned a collision cross section of 411.34 ± 0.34 Å².

For “DKALPLEAEVAPVK [_DK(Dimethyl (K))ALPLEAEVAPVK_]”, the collision cross section runs as follows: under setting [9], 411.93 ± 0.85 Å²; under setting [10], 502.53 ± 1.6 Å².

Under setting [11], “DKALPLEAEVAPVK [_DK(Formyl)ALPLEAEVAPVK_]” yielded a collision cross section of 412.02 ± 0.74 Å².

“DKALPLEAEVAPVK [_DK(Gluratylation)ALPLEAEVAPVK_]” gave a collision cross section under setting [12] of 424.54 ± 0.97 Å².

Consider “DKALPLEAEVAPVK [_DK(GlyGly (K))ALPLEAEVAPVK_]”, for which the collision cross section under setting [14] worked out at 422.58 ± 0.97 Å² and the collision cross section under setting [15] is listed as 511.69 ± 1.3 Å².

“DKALPLEAEVAPVK [_DK(Malonyl)ALPLEAEVAPVK_]” gave a collision cross section under setting [16] of 414.83 ± 0.6 Å².

“DKALPLEAEVAPVK [_DK(Methyl (K))ALPLEAEVAPVK_]”: the collision cross section stood at 408.8 ± 1.9 Å² under setting [18] and 507.57 ± 2 Å² under setting [19].

The sequence “DKALPLEAEVAPVK [_DK(Propionyl)ALPLEAEVAPVK_]” gave a collision cross section under setting [25] of 410.19 Å².

Take “DKALPLEAEVAPVK [_DK(Succinyl)ALPLEAEVAPVK_]”: the collision cross section under setting [20] is reported as 421.55 ± 0.36 Å².
